These results are taken from doi:10.1101/2020.01.09.899237 (bioRxiv, 2020).

B1: DnaJB8 C-terminal domain CTD_(170-232) (domain or fragment, human, UniProt Q8NHS0 170-232, looked up)
chain: GGSSSGSSGFKSVMSSTEMINGHKVTTKRIVENGQERVEVEEDGQLKSVTVNGKEQLKWMDSK
B2: FITC-labelled JD_(1-77) (domain or fragment)
chain: not shown
modifications: FITC-maleimide label (site not stated)
B3: DnaJB8-mClover3 fusion protein (natural protein, human, UniProt Q8NHS0 1-232, looked up)
chain: MANYYEVLGVQASASPEDIKKAYRKLALRWHPDKNPDNKEEAEKKFKLVSEAYEVLSDSKKRSLYDRAGCDSWRAGGGASTPYHSPFDTGYTFRNPEDIFREFFGGLDPFSFEFWDSPFNSDRGGRGHGLRGAFSAGFGEFPAFMEAFSSFNMLGCSGGSHTTFSSTSFGGSSSGSSGFKSVMSSTEMINGHKVTTKRIVENGQERVEVEEDGQLKSVTVNGKEQLKWMDSK
B4: DnaJB8 (recombinant full-length wild type) (natural protein, human, UniProt Q8NHS0 1-232, looked up)
chain: B3 chain

Data set [1] addresses B2. Put plainly: MST.
Data set [2] has as its target B2. The experiment in a line: fluorescence polarisation. Background: Fluorescence polarisation rises when a labelled molecule tumbles more slowly, as on binding a larger partner.
For a further data set, the target named is HspA1A (human Hsp70) (human, UniProt P0DMV8 1-641). The experiment in a line: fluorescence polarisation.
Sequence of HspA1A (human Hsp70) (P0DMV8 whole entry): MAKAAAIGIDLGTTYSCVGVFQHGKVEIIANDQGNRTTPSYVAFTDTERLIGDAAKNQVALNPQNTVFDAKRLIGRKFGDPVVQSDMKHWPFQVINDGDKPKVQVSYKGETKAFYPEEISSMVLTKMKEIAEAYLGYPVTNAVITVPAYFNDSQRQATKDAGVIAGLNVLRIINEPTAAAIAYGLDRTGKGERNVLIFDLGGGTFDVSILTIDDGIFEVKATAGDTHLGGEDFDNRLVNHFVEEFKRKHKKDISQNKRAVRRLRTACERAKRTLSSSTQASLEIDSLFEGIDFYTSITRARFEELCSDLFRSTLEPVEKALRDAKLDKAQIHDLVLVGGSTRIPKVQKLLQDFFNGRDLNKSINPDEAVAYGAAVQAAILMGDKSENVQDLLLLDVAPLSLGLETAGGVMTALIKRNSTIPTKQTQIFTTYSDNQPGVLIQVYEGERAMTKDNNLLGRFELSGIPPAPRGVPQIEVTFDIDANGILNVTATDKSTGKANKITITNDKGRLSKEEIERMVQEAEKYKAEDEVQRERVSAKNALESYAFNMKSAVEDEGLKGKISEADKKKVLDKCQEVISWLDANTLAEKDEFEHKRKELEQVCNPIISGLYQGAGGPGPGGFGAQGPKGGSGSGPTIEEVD
The data set “cross-linking” deals with the molecule itself. The experiment in a line: cross-linking.
The data set “dynamic light scattering” concerns the molecule itself. The experiment in a line: dynamic light scattering.

By Kd is commonly meant the constant that tells how readily two partners part at equilibrium. The low end stands for a tighter complex, the high end for a looser complex. With B1, the figures for the equilibrium dissociation constant (Kd) with FITC-labelled JD_(1-77) [1] and with FITC-labelled JD_(1-77) [2] were 5.36 ± 1.15 µM and 542 ± 71 nM, respectively. In the case of B2, the affinity with HspA1A (human Hsp70), expressed as Kd, was 257 ± 29 nM. As for B3, the binding result in “cross-linking” is recorded as “binds”.

As to B4, in “dynamic light scattering”, the binding result is given as “binds”.
